Laboratory results reported in PMC11147780, “Vaccination induces broadly neutralizing antibody precursors to HIV gp41” (Nature Immunology, 2024).

Biological target: T1, 10E8-GT10.2 epitope scaffold (designed scaffold 10E8-GT10.2 with …, N-linked glycosylation sites added (positions not given))
T1 chain: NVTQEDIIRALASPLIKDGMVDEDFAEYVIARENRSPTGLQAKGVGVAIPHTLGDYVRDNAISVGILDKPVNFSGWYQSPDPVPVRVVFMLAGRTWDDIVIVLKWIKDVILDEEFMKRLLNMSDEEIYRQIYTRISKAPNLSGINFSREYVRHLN

Row | Binder | Kd [nM]
1 | NHP-10E8_MPER-GT10v55_W21-18 (antibody, V domains shown) VH: QLQLQESGPGLVKPSETLSLTCAVSGGSISSSYWSWIRQAPGKGLEWIGYIYGSGSSTNYNPSLKSRVTLSVDTSKNQLSLKLSSVTAADTAVYYCARDVKDYNFWSGYYEDGYFDYWGQGVLVTVSS VL: DIVMTQTPLSLPVTPGEPASISCRSSQSLLHSNGNTYLHWYLQKPGQSPRLLIYKVTNRESGVPDRFSGSGSGTDFTLKISRVEPEDVGVYYCMQSTKDPYSFGQGTKVEIK | 6000
2 | NHP-Comp_MPER-GT10v55_W21-03 (antibody, V domains shown) VH: QMQLQESGPGLVKPSETLPLTCAVSGASISSNFWSWIRQAPGMGLEWIGRIYGNGGSTDYNPSLKSRVTISIDTSKNQFSLKLSSVTAADTAVYFCASSFLFRFDVWGPGVLVTVSS VL: QSVLTQPPSASGAPGQSVTISCSGSSSNIGGNHVYWYQQLPGTAPKLLIYYSNQRPSGVPDRFSGSKSGTSASLAITGLRSEDEADYYCAAWDDSLSSYIFGAGTRLTV | 10.8
3 | NHP-10E8_MPER-GT10v55_W21-14 (antibody, V domains shown) VH: QVQLQESGPGLVKPSETLSLTCAVSGGSISSGYYYWSWIRQPPGKGLEWIGYITYSGSTSYNPSLKSRVTISRDTSKNQFSLKLSSVTAADTAVYYCASAPSYYNFWSGYYHLDYFDYWGQGVLVTVSS VL: QSVLTQPPSVSGAPGQRVTISCTGSSSNIGGYYVSWYQQLPGTTPKLLIYQDNKRPSGVSDRFSGSKSGTSASLTITGLQTEDEADYYCLSYDSSLSAHGLFGGGTRLTV | 2400
4 | NHP-10E8_MPER-GT10v55_W21-16 (antibody, V domains shown) VH: QVQLQESGPGLVKPSETLSLTCAVSGGSISSGYYYWSWIRQPPGKGLEWIGYITYSGSTSYNPSLKSRVTISRDTSKNQFSLKLSSVTAADTAVYYCARVGVYYNFWSGYYTNTYFDYWGQGVLVTVSS VL: QAAPTQPPSVSGSPGQSVTISCTGTSSDIGYYNAVSWYQQHPGKAPKLMIYEVSKRPSGVSDRFSGSKSGNTASLTISGLQAEDEADYYCSSYAGSNTFIFGAGTRLTV | 2400
5 | NHP-Comp_MPER-GT10v55_W21-02 (antibody, V domains shown) VH: QVQLQESGPAVVKPSETLSLTCAVSGGSISSNNWWSWIRQSPGKGLEWIGGLYGSGGNTEYYPSLKSRVTISVDTSKNQFSLKLSSVTAADTAVYYCASPAPYYGRGYSFDAFDFWGQGLRVTVSS VL: QSALTQPPSVSKSLGQSVTISCTGTSSDIGGYNGVSWYQQHSGTAPKLLIYDVNKRPSGVSDRFSGSKSGNTASLTISGLQAEDEADYYCCSYRGGSTYWVFGGGTRLTV | 6840
6 | NHP-10E8_MPER-GT10v55_W21-15 (antibody, V domains shown) VH: QLQLQESGPGLVKPSETLSLTCAVSGGSISSSNWWSWIRQPPGKGLEWIGRISGSGGSTSDNPSLKSRVTISKDTSKNQFSLKLSSVTAADTAVYYCASESFYYNFWSGYYQENSLDVWGRGVLVTVSS VL: QPVLTQPTSLSASPGASARLSCTLSSGINVGSYSIFWYQQKPGSPPRYLLYYYSDSSKHQGSGVPSRFSGSKDASANAGLLLISGLQSEDEADYYCAIWHSSAYVLFGGGTRLTV | 5130
7 | NHP-Comp_MPER-GT10v55_W21-04 (antibody, V domains shown) VH: DVQLVESGGGLVKPGGSLRLSCVASDFTFSSYEMHWVRQAPGKGLEWVSLISESGDTTYYADSVKGRFTISRDNAKNSLFLQMNSLRAEDTAVYYCTRAITVFGVVITHFDYWGQGVLVPVSS VL: QSALTQPPSVSKSLGQSVTISCTGTSSDIGGYYAVSWYQQHSGTAPRLLIYEVSKRPSGVSDRFSGSKSGNTASLTISGLQAEDEADYYCGSFRTGYTYIFGAGTRLTV | 15.6
8 | NHP-10E8_MPER-GT10v55_W21-17 (antibody, V domains shown) VH: QVQLQESGPGLVKPSETLSLTCVVAGGSISDDYYWSWIRQSPGKGLEWIGYIYGSGGGTKYNPSLKNRVTISIDTSKNQFSLKLSSVTAADTAVYYCARELRYYNFWSGYYDNYYGLDSWGQGVVVTVSS VL: DIVMTQTPLSLPITPGEPASISCRSSQSLLHSTGNTYLHWYLQKPGQSPQLLIYGGSNRASGVPDRFSGSGSGTDFTLKISKVEAEDVGVYYCVQAIAFPFTFGPGTKLDIK | 2.41
9 | NHP-Comp_MPER-GT10v55_W26-02 (antibody, V domains shown) VH: QLQLQESGPGLVKPSETLSVTCAVSGGSISGGYGWSWIRQPPGKGLEWIGHIFDSFGNTYYNPSLKSRVTISTDTSKNQFSLKLSSVTAADTAVYYCARETVLGAGDYFDSWGQGVLVTVSS VL: DIQMTQSPSSLSASVGDTVTITCRASQDINNYLAWYQQKPGKAPKPLIYHASYLESGVPSRFSGSGSGTDFTLTISSLQPEDFAIYYCQQHNAYPFTFGPGTKLDIK | 3.18
10 | NHP-10E8_MPER-GT10v55_W21-11 (antibody, V domains shown) VH: EVRLVESGGGLVQPGGSLRLSCAASGFTFSDYYMSWVRQAPGKGPEWVGFIRNKANGGTAEYAASVKGRFTISRDDSKSIASLQMNSLKTEDTAVYYCARDRGNYNFWSGYSGSDYFDYWGQGVLVTVSS VL: QSVLTQPPSVSAAPGQKVTISCSGSSSNIGRSYVSWYQQVPGTAPKLLIYDNNKRPSGVSDRFSGSKSGTSASLAITGLQTGDEADYYCGAWDSSLSAGLFGGGTRLTV | 8110
11 | NHP-10E8_MPER-GT10v55_W21-10 (antibody, V domains shown) VH: EVRLVESGGDLVQPGGSLRLSCAASGFTFSYYSMSWVRQAPGKGLEWIGFIKNKADGGTEAYAESVKGRFTISRDDSENTLYLQMNSLKTDDTAVYSCTRGRVYYNFWSGFYTGGRFDVWGPGVLVTVSS VL: DIVMTQTPLSLPVTPGEPASISCRSSQSLLDSEDGNTYLDWYLQKPGQSPQLLIYEVSNRASGVPDRFSGSGSDTDFTLKISRLEAEDVGVYYCMQGLEFPFTFGPGTKLDIK | 0.81
12 | NHP-10E8_MPER-GT10v55_W21-13 (antibody, V domains shown) VH: QLQLQESGPGLVKPSETLSLTCAVSGGSISGGYGWSWIRQPLGKGLEWIGHIFGSIGSTYYNPSLKSRVTISTDTSKNQFSLKLSSVTAADTAVYYCARTRSFYNFWSGYYTRHAFDFWGQGLRVTVSS VL: DIVMTQTPLSLPVTLGEPASISCRSSQSLLDSEDGNTYLEWYLQKPGQSPQLLIYEVSNRASGVPDRFSGSGSDTDFTLKISRVEAEDVGVYYCMQALEFPPTFGQGTKVEIK | 1300
13 | NHP-Comp_MPER-GT10v55_W26-06 (antibody, V domains shown) VH: QVQLVQSGAEVKQPGASVKVSCLASGYTFTSYSIHWLRQAHGQRLEWMGWINTATGNPTYTQGFKERFTFSMDTSITTAYLQISSLKTEDTAVYYCARLYRDFWGGYYASSLDVWGRGVLVTVSS VL: SYDLTQPPSVSVSPGQTARITCGGENIGSEPVHWYQQKPPQAPLQVIYSDSERPSGIPERFSGSKSGNTATLTISGVEAGDEADYYCQVWDISSDHPYIFGAGTRLTV | 0.112
14 | NHP-Comp_MPER-GT10v55_W26-04 (antibody, V domains shown) VH: QVQLQESGPGVVKPSETLSLTCAVSGDSISDSYWWSWIRQPPGKGLEWIGYIYGSSTNTNYNPSLKSRVTISKDTSKNQFSLKLSSVTAADTAVYYCARESRWLEEYPLNTFDYWGQGVLVTVSS VL: DIVMTQTPLSLPVTPGEPASISCRSSQSLLDSYGYIHLHWYLQKPGQSPQLLIYLGSNRASGVPDRFSGSGSGTDFTLKISRVEAEDVGVYYCMQTLQTPRTFGQGTKVEIK | 20.8
15 | NHP-Comp_MPER-GT10v55_W21-01 (antibody, V domains shown) VH: QVQLQESGPGLVKPSETLSLTCAVSGGSFSSYWWGWIRQPPGKGLEWIGSIYGSSGSTEYNPSLKSRATISRDTSKNQFSLKLSSVTAADTAVYYCARVKAPEIFGVVITGYYFDYWGQGVLVTVSS VL: SYELTQPLSVSVALGQMARITCGGNNIGRKYVYWYQQKPDQAPVLVIYEDSKRPSGIPERFAGSNSGNTATLTIDGAQARDEADYYCQVWDSSTAYIFGAGTRLTV | 2630
